From paper PMC4496704 come the findings set out here.

Broadly, the stoichiometry N is a count of units in the complex or per binding partner.

The target in test [1] is Recombinant mouse Hsp70 (70-kDa heat shock protein), wild type (mouse) (UniProt Q61696). Nature of the test: cross-linking; without sulfatide (with or without lactosylceramide); 0.1 μM protein in PBS, 0.1% glutaraldehyde 10 min 30 °C, SDS-PAGE and Western blot.
The target in test [2] is Hsp-N (ATPase domain of mouse Hsp70; lacks the peptide-binding domain) (mouse). Described as above.

On to “Recombinant mouse Hsp70 (70-kDa heat shock protein), wild type (from UniProt Q61696 1-641) (natural protein)”, for which the stoichiometry N in test [1] stood at 2. Consider “Hsp-N (ATPase domain of mouse Hsp70; lacks the peptide-binding domain) (domain or fragment)”, for which the stoichiometry N in test [2] came to 2.
